Measured values taken from patent US20140213531A1 (POLYPHOR, published 2014).
Bridges are numbered along the chain shown (N, C = ends). [ ]: non-standard residue; d: D form. Nle = CCCC[C@H](N)C(=O)O; Abu = CC[C@H](N)C(=O)O

B1: Example 80 (peptide)
peptide: XCTASXPPQCY
HELM: PEPTIDE1{[Nle].C.T.A.S.[CCCCCC[C@H](N[*:1])C(=O)[*:2]].P.P.Q.C.Y.[dP].P}$PEPTIDE1,PEPTIDE1,2:R3-10:R3|PEPTIDE1,PEPTIDE1,1:R1-13:R2$$$V2.0
SMILES: CCCCCC[C@@H]1NC(=O)[C@H](CO)NC(=O)[C@H](C)NC(=O)[C@H]([C@@H](C)O)NC(=O)[C@@H]2CSSC[C@H](NC(=O)[C@H](CCC(N)=O)NC(=O)[C@@H]3CCCN3C(=O)[C@@H]3CCCN3C1=O)C(=O)N[C@@H](Cc1ccc(O)cc1)C(=O)N1CCC[C@@H]1C(=O)N1CCC[C@H]1C(=O)N[C@@H](CCCC)C(=O)N2
B2: Example 9 (peptide)
peptide: XCTKSDPPICS
HELM: PEPTIDE1{[Nc1ccc(C[C@H](N[*:1])C(=O)[*:2])cc1].C.T.K.S.D.P.P.I.C.S.[dP].P}$PEPTIDE1,PEPTIDE1,2:R3-10:R3|PEPTIDE1,PEPTIDE1,1:R1-13:R2$$$V2.0
SMILES: CC[C@H](C)[C@@H]1NC(=O)[C@@H]2CCCN2C(=O)[C@@H]2CCCN2C(=O)[C@H](CC(=O)O)NC(=O)[C@H](CO)NC(=O)[C@H](CCCCN)NC(=O)[C@H]([C@@H](C)O)NC(=O)[C@@H]2CSSC[C@H](NC1=O)C(=O)N[C@@H](CO)C(=O)N1CCC[C@@H]1C(=O)N1CCC[C@H]1C(=O)N[C@@H](Cc1ccc(N)cc1)C(=O)N2
B3: Example 79 (peptide)
peptide: XCTASXPPQCY
HELM: PEPTIDE1{[Nle].C.T.A.S.[Nle].P.P.Q.C.Y.[dP].P}$PEPTIDE1,PEPTIDE1,2:R3-10:R3|PEPTIDE1,PEPTIDE1,1:R1-13:R2$$$V2.0
SMILES: CCCC[C@@H]1NC(=O)[C@@H]2CCCN2C(=O)[C@H]2CCCN2C(=O)[C@H](Cc2ccc(O)cc2)NC(=O)[C@@H]2CSSC[C@H](NC1=O)C(=O)N[C@@H]([C@@H](C)O)C(=O)N[C@@H](C)C(=O)N[C@@H](CO)C(=O)N[C@@H](CCCC)C(=O)N1CCC[C@H]1C(=O)N1CCC[C@H]1C(=O)N[C@@H](CCC(N)=O)C(=O)N2
B4: Example 83 (peptide)
peptide: XCTASXPPQCY
HELM: PEPTIDE1{[Nle].C.T.A.S.[CC(C)CC[C@H](N[*:1])C(=O)[*:2]].P.P.Q.C.Y.[dP].P}$PEPTIDE1,PEPTIDE1,2:R3-10:R3|PEPTIDE1,PEPTIDE1,1:R1-13:R2$$$V2.0
SMILES: CCCC[C@@H]1NC(=O)[C@@H]2CCCN2C(=O)[C@H]2CCCN2C(=O)[C@H](Cc2ccc(O)cc2)NC(=O)[C@@H]2CSSC[C@H](NC1=O)C(=O)N[C@@H]([C@@H](C)O)C(=O)N[C@@H](C)C(=O)N[C@@H](CO)C(=O)N[C@@H](CCC(C)C)C(=O)N1CCC[C@H]1C(=O)N1CCC[C@H]1C(=O)N[C@@H](CCC(N)=O)C(=O)N2
B5: Example 71 (peptide)
peptide: XCTKSDPPXCR
HELM: PEPTIDE1{[O=C([C@@H](N[*:1])C1CCCCC1)[*:2]].C.T.K.S.D.P.P.[Cha].C.R.[dP].P}$PEPTIDE1,PEPTIDE1,2:R3-10:R3|PEPTIDE1,PEPTIDE1,1:R1-13:R2$$$V2.0
SMILES: C[C@@H](O)[C@@H]1NC(=O)[C@@H]2CSSC[C@H](NC(=O)[C@H](CC3CCCCC3)NC(=O)[C@@H]3CCCN3C(=O)[C@@H]3CCCN3C(=O)[C@H](CC(=O)O)NC(=O)[C@H](CO)NC(=O)[C@H](CCCCN)NC1=O)C(=O)N[C@@H](CCCNC(=N)N)C(=O)N1CCC[C@@H]1C(=O)N1CCC[C@H]1C(=O)N[C@@H](C1CCCCC1)C(=O)N2
B6: Example 77 (peptide)
peptide: XCTTSIPPYCY
HELM: PEPTIDE1{[Nle].C.T.T.S.I.P.P.Y.C.Y.[dP].P}$PEPTIDE1,PEPTIDE1,2:R3-10:R3|PEPTIDE1,PEPTIDE1,1:R1-13:R2$$$V2.0
SMILES: CCCC[C@@H]1NC(=O)[C@@H]2CCCN2C(=O)[C@H]2CCCN2C(=O)[C@H](Cc2ccc(O)cc2)NC(=O)[C@@H]2CSSC[C@H](NC1=O)C(=O)N[C@@H]([C@@H](C)O)C(=O)N[C@@H]([C@@H](C)O)C(=O)N[C@@H](CO)C(=O)N[C@@H]([C@@H](C)CC)C(=O)N1CCC[C@H]1C(=O)N1CCC[C@H]1C(=O)N[C@@H](Cc1ccc(O)cc1)C(=O)N2
B7: Example 76 (peptide)
peptide: ICTASLPPQCY
HELM: PEPTIDE1{I.C.T.A.S.L.P.P.Q.C.Y.[dP].P}$PEPTIDE1,PEPTIDE1,2:R3-10:R3|PEPTIDE1,PEPTIDE1,1:R1-13:R2$$$V2.0
SMILES: CC[C@H](C)[C@@H]1NC(=O)[C@@H]2CCCN2C(=O)[C@H]2CCCN2C(=O)[C@H](Cc2ccc(O)cc2)NC(=O)[C@@H]2CSSC[C@H](NC1=O)C(=O)N[C@@H]([C@@H](C)O)C(=O)N[C@@H](C)C(=O)N[C@@H](CO)C(=O)N[C@@H](CC(C)C)C(=O)N1CCC[C@H]1C(=O)N1CCC[C@H]1C(=O)N[C@@H](CCC(N)=O)C(=O)N2
B8: Example 53 (peptide)
peptide: FCTKSDPPXCS
HELM: PEPTIDE1{F.C.T.K.S.D.P.P.[Nle].C.S.[dP].P}$PEPTIDE1,PEPTIDE1,2:R3-10:R3|PEPTIDE1,PEPTIDE1,1:R1-13:R2$$$V2.0
SMILES: CCCC[C@@H]1NC(=O)[C@@H]2CCCN2C(=O)[C@@H]2CCCN2C(=O)[C@H](CC(=O)O)NC(=O)[C@H](CO)NC(=O)[C@H](CCCCN)NC(=O)[C@H]([C@@H](C)O)NC(=O)[C@@H]2CSSC[C@H](NC1=O)C(=O)N[C@@H](CO)C(=O)N1CCC[C@@H]1C(=O)N1CCC[C@H]1C(=O)N[C@@H](Cc1ccccc1)C(=O)N2
B9: Example 25 (peptide)
peptide: FCTKXDPPICS
HELM: PEPTIDE1{F.C.T.K.[NC[C@H](N[*:1])C(=O)[*:2]].D.P.P.I.C.S.[dP].P}$PEPTIDE1,PEPTIDE1,2:R3-10:R3|PEPTIDE1,PEPTIDE1,1:R1-13:R2$$$V2.0
SMILES: CC[C@H](C)[C@@H]1NC(=O)[C@@H]2CCCN2C(=O)[C@@H]2CCCN2C(=O)[C@H](CC(=O)O)NC(=O)[C@H](CN)NC(=O)[C@H](CCCCN)NC(=O)[C@H]([C@@H](C)O)NC(=O)[C@@H]2CSSC[C@H](NC1=O)C(=O)N[C@@H](CO)C(=O)N1CCC[C@@H]1C(=O)N1CCC[C@H]1C(=O)N[C@@H](Cc1ccccc1)C(=O)N2

Key:
Assay in all cases: cell-based or functional assay
[1] = molecular target: T1, Elastase from human neutrophils (human, UniProt P08246 30-247, limits assumed)
T1 sequence (looked up): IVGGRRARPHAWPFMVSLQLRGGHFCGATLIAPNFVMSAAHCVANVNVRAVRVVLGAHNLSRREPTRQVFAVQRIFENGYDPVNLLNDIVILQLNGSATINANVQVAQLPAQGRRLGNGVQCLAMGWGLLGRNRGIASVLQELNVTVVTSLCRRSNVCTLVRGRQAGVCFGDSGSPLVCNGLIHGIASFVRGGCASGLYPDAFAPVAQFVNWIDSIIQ

[2] = molecular target: T2, CathepsinG, from human neutrophils (human, UniProt P08311 21-244)
T2 sequence (looked up): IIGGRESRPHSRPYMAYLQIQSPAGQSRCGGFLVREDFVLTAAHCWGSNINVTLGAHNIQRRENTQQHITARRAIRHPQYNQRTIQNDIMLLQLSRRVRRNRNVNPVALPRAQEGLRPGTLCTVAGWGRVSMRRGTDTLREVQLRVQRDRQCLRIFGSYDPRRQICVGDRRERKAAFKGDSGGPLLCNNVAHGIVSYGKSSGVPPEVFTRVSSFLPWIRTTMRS

[3] = molecular target: Trypsin, Iodination grade, from human pancreas (human, UniProt P07477 24-247)
[4] = molecular target: T3, Chymase, from human skin (human, UniProt P23946 22-247)
T3 sequence (looked up): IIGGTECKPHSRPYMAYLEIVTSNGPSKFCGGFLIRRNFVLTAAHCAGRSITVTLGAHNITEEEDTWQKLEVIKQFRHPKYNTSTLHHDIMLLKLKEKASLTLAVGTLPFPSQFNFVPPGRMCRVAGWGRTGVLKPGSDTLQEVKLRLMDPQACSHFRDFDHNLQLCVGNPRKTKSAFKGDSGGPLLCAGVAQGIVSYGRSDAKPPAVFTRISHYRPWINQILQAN

IC50 [1] [nmol]	IC50 [2] [nmol]	% inhibition at 100 µM [1] [%]	% inhibition at 100 µM [3] [%]	% inhibition at 100 µM [4] [%]	Binder
35					B1
	105	4.1	88.1		B2
66					B3
43					B4
29					cyclo([Nle]CT[Abu]SIPPQCY[dP]P) (disulfide 2-10) [Example 78]
	70				B5
> 100000	91		86		cyclo(FCTKSDPPICS[dP]L) (disulfide 2-10) [Example 74]
> 100000	91				cyclo(FCTKSDPPICS[dP]L) (disulfide 2-10) [Example 51]
	87				cyclo(FCTKSDPPICS[dT]P) (disulfide 2-10) [Example 72]
68					B6
71					B7
> 100000	56		95	12.7	B8
	102	3.2	89.3	10	B9
